From the supplement of paper PMC10567573

B1: TRIM35 (parent)
chain: WEVQVSPTCPVCKDRASPADLRTN
B2: NEUROD6 (parent)
chain: YHSPELTTPPGHGTLDNSKSMKPY
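Note: lentivirally expressed fusions sorted by FACS into six bins by GFP to DsRed ratio, PSI derived from sequencing read proportions per bin multiplied by bin number.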

Variants of: B1
Assay: protein stability index of a GFP-peptide fusion (GPS, HEK-293T) (PSI 1-6); higher = more stable
Conditions: c terminus: a fixed tail appended
For HEVQVSPTCPVCKDRASPADLRTN [W1H], the protein stability index was 3.37.
With WEVQVSPTCPVCKDRASPQDLRTN [A19Q] the protein stability index was 2.31.
WEVQVSPTCPVCKDRASPADLRCN [T23C] gave a protein stability index of 2.13.

Variants of: B2
Assay: as above
Conditions: c terminus: a fixed tail appended
In the case of YHSPELTTPPGHGTLDNSKSMLPY [K22L], the protein stability index is reported as 2.2.
YHSPELTTPPGHGTLDNSKSMRPY [K22R] gave a protein stability index of 2.47.
In the case of YHSPELTTPPGHGTLDNSKSMMPY [K22M], the protein stability index is reported as 2.15.
YHSPELTTPPGHGTLDNSKSMCPY [K22C] gave a protein stability index of 1.81.
For YHSPELTTPPGHGTLDNSKSMVPY [K22V], the protein stability index was 2.06.
Work on YHSPELTTPPGHGTLDNSKSMYPY [K22Y] yielded a protein stability index of 1.83.
For YHSPELTTPPGHGTLDNSKSMDPY [K22D], the protein stability index was 2.55.
YHSPELTTPPGHGTLDNSKSMAPY [K22A] showed a protein stability index of 2.56.
With YHSPELTTPPGHGTLDNSKSMTPY [K22T] the protein stability index was 2.32.
YHSPELTTPPGHGTLDNSKSMFPY [K22F] gave a protein stability index of 2.25.
YHSPELTTPPGHGTLDNSKSMHPY [K22H] showed a protein stability index of 1.87.
In the case of YHSPELTTPPGHGTLDNSKSMWPY [K22W], the protein stability index is reported as 2.32.
Work on YHSPELTTPPGHGTLDNSKSMIPY [K22I] yielded a protein stability index of 2.41.
YHSPELTTPPGHGTLDNSKSMQPY [K22Q] showed a protein stability index of 2.15.
In the case of YHSPELTTPPGHGTLDNSKSMEPY [K22E], the protein stability index is reported as 2.46.
YHSPELTTPPGHGTLDNSKSMPPY [K22P] gave a protein stability index of 1.82.
With YHSPELTTPPGHGTLDNSKSMGPY [K22G] the protein stability index was 1.75.
Variant YHSPELTTPPGHGTLDNSKSMSPY [K22S] has a protein stability index of 2.26.
With YHSPELTTPPGHGTLDNSKSMNPY [K22N] the protein stability index was 2.14.
YHSPELTTPPGHGTLENSKSMKPY [D16E] gave a protein stability index of 2.32.
Variant YHSPELTTPPGHGTLWNSKSMKPY [D16W] has a protein stability index of 2.19.
For YHSPELTTPPGHGTLVNSKSMKPY [D16V], the protein stability index was 2.18.
For YHSPELTTPPGHGTLGNSKSMKPY [D16G], the protein stability index was 1.56.
Work on YHSPELTTPPGHGTLLNSKSMKPY [D16L] yielded a protein stability index of 1.98.
YHSPELTTPPGHGTLYNSKSMKPY [D16Y] gave a protein stability index of 2.05.
YHSPELTTPPGHGTLANSKSMKPY [D16A] gave a protein stability index of 1.65.
Variant YHSPELTTPPGHGTLNNSKSMKPY [D16N] has a protein stability index of 2.27.
With YHSPELTTPPGHGTLINSKSMKPY [D16I] the protein stability index was 1.81.
For YHSPELTTPPGHGTLHNSKSMKPY [D16H], the protein stability index was 2.46.
In the case of YHSPELTTPPGHGTLSNSKSMKPY [D16S], the protein stability index is reported as 2.26.
Work on YHSPELTTPPGHGTLMNSKSMKPY [D16M] yielded a protein stability index of 2.45.
Variant YHSPELTTPPGHGTLCNSKSMKPY [D16C] has a protein stability index of 2.66.
Work on YHSPELTTPPGHGTLRNSKSMKPY [D16R] yielded a protein stability index of 1.63.
In the case of YHSPELTTPPGHGTLPNSKSMKPY [D16P], the protein stability index is reported as 2.74.
YHSPELTTPPGHGTLQNSKSMKPY [D16Q] gave a protein stability index of 2.59.
YHSPELTTPPGHGTLKNSKSMKPY [D16K] showed a protein stability index of 1.86.
With YHSPELTTPPGHGTLFNSKSMKPY [D16F] the protein stability index was 1.75.
With YHSPELTTPPGHGTLTNSKSMKPY [D16T] the protein stability index was 2.05.
For YHSPELTTPPGHGTLDNSKSIKPY [M21I], the protein stability index was 2.84.
For YHSPELTTPPGHGTLDNSKSEKPY [M21E], the protein stability index was 2.35.
Variant YHSPELTTPPGHGTLDNSKSFKPY [M21F] has a protein stability index of 2.18.
In the case of YHSPELTTPPGHGTLDNSKSLKPY [M21L], the protein stability index is reported as 2.44.
YHSPELTTPPGHGTLDNSKSQKPY [M21Q] gave a protein stability index of 2.32.
Variant YHSPELTTPPGHGTLDNSKSHKPY [M21H] has a protein stability index of 2.56.
